Assay results reported in PMC9640981, “Plant vernalization proteins contain unusual PHD superdomains without histone H3 binding activity” (The Journal of Biological Chemistry, 2022).

Biological target: Arabidopsis thaliana (At) OBE1_(193-372), PHD superdomain of OBERON 1 (A. thaliana) (UniProt Q9S736)
Assay: ITC; 25 °C, iTC 200; 25 mM Tris pH 8, 150 mM NaCl, 1 mM DTT; 19 injections of 2 μl of 0.25 to 1 mM peptide into 50 μM protein

H3K4me2 (1–15) histone H3 tail peptide (from UniProt P68431 2-16)
Kd: 1900 nM
